Patent US20120328616A1

Molecular target: human FGFR1c/human β-Klotho complex (FGF21 receptor) (human) (UniProt P11362)
Experiment: cell-based or functional assay

human FGF21 (ligand)
EC50, pERK Human Adipocyte Assay: 0.623 nM
